Assay results from patent US20090010911A1, “METHODS AND COMPOSITIONS FOR AFFECTING CYCLOPHILIN A REGULATION OF KINASES IN MODULATING CELLULAR ACTIVITIES” (IOWA STATE UNIVERSITY RESEARCH FOUNDATION, INC., priority 2007, published 2009).

How the values were obtained:
[1] = target: T1, Itk full-length enzyme (Mus musculus, UniProt Q03526); assay: In vitro kinase assay with western blotting, phosphorylation of SH2 domain-containing substrates with added free SH2 domain or CypA; assay type: biochemical
T1 construct: Full-length Itk, Btk and Tec and the Itk kinase domain fragments were PCR amplified; made in house; host or cells: Sf9 insect cells (baculovirus), co-infected 1:1 with Lck baculovirus
T1 sequence (Q03526 1-625): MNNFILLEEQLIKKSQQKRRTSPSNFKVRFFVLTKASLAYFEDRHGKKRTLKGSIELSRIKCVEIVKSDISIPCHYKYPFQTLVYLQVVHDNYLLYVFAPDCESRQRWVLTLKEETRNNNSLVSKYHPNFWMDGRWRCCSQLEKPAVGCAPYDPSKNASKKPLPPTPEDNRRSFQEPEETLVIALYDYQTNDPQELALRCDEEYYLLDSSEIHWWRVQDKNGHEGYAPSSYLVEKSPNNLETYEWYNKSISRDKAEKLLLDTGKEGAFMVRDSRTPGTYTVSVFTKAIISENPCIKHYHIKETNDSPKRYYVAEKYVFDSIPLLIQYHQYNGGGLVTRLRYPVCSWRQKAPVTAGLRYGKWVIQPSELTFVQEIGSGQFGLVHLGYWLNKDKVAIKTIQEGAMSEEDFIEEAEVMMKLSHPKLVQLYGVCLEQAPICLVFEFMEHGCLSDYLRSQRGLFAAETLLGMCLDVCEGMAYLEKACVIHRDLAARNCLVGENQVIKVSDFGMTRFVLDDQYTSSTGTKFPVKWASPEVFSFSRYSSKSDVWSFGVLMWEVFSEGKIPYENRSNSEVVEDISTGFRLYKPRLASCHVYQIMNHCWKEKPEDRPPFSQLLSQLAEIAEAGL
Experimental: Substrate used in each experiment is indicated above each set of blots. 4(a) (left) Itk 32 substrate was incubated with Itk full-length enzyme as before (lane 1), or with Itk 32 domain:free Itk SH2 domain in ratios of 1:10, 1:25 or 1:50 (lanes 2-4, respectively) or equivalent ratios of PI3K N-terminal SH2 domain (lanes 5-7) and subjected to an in vitro kinase assay. […] Coomassie stain and an anti-FLAG blot (bottom panels) show protein levels. (right) The PLCγ1 SH2 domain competes with the PLCγ1 substrate in a similar manner. Lane 1 contains only Itk enzyme and PLCγ1 SH2C-Y783-substrate without additional free SH2 domain. Ratios of free SH2 domain to substrate are 1:5, 1:10 or 1:50 in lanes 2-4, respectively and equivalent ratios of PI3K SH2 domain are used in lanes 5-7. Coomassie stain of the gel and an anti-Itk blot (bottom panels) show protein levels. 4(b) Same experiment as shown in (a) using the Grb2 SH2 domain as a control. (left) Itk 32 substrate was incubated with Itk full-length enzyme (lane 1), or with Itk 32 domain:free Itk SH2 domain in ratios of 1:10 and 1:25 (lanes 2 & 3) or equivalent ratios of Grb2 SH2 domain (lanes 4 & 5) and subjected to an in vitro kinase assay. (right) Identical experiment following PLCγ1 substrate phosphorylation in the presence of the PLCγ1 and Grb2 SH2 domains. Lane 1 is PLCγ1 substrate alone; lanes 2 & 3 are PLCγ1 substrate:PLCγ1 SH2 domain in a 1:10 and 1:25 ratio, respectively and lanes 4 & 5 are identical ratios of PLCγ1 substrate:Grb2 SH2 domain. 4(c) The Itk SH2 domain competes with autophosphorylation of Y180 within full length Itk. For lanes 2-4, the amount of free SH2 domain is the same as used in panel (a), lanes 2-4. No exogenous SH2 domain has been added in lane 1 and full length Itk is both the enzyme and the substrate. Coomassie stain and an anti-FLAG blot (bottom panels) show protein levels. […] Initial velocities are shown for phosphorylation of peptide B (sequence shown in FIG. 5a) by full length Itk in the absence (column 1) and presence (column 2 and 3) of Itk SH2 domain. […]

[2] = target: T2, Itk LKD enzyme (Mus musculus, UniProt Q03526); assay: Quantitative kinase assay, Km determination for Peptide B and PLCγ1 SH2C-Peptide B fusion; assay type: biochemical; conditions: phosphorylation by Itk LKD enzyme 0.9 μM, 200 μM ATP, room temperature
T2 construct: linker kinase domain (Itk LKD); made in house; host or cells: Sf9 insect cells (baculovirus), co-infected 1:1 with Lck baculovirus
T2 sequence (Q03526 344-625 limits assumed): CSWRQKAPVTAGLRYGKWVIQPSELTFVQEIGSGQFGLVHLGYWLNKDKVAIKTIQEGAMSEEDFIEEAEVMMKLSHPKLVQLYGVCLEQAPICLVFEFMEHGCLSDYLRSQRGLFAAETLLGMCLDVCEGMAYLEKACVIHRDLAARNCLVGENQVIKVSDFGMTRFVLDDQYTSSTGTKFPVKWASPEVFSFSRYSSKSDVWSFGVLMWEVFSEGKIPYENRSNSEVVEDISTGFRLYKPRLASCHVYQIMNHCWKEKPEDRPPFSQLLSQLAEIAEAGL
Source text: 5(a) Construction of a PLCγ1 SH2C-Peptide B fusion protein was based on alignment of Y783 within the PLCγ1 linker and the Tyr of Peptide B. The 14 amino acids of Peptide B were used to replace the last 16 amino acids of PLCγ1 SH2C-Y783-. The Tyr that is phosphorylated in each substrate is boxed. A mutant construct is also shown that contains serine in place of the tyrosine of peptide B. This site was mutated to serine instead of phenylalanine due to solubility problems associated with the Tyr to Phe mutation. 5(b) FLAG-tagged Itk LKD enzyme (1 μM) was incubated with 20 μM of the PLCγ1 SH2C-Peptide B fusion protein (lane 4) or 20 μM of the PLCγ1 SH2C-Peptide B(YS) mutant protein (lane 5) in an in vitro kinase assay. Lanes 1-3 are Itk enzyme alone, PLCγ1 SH2C-Peptide B substrate alone and PLCγ1 SH2C-Peptide B(YS) substrate alone, respectively, that have each been subjected to the same in vitro kinase assay conditions. (c & d) FLAG-tagged Itk LKD enzyme was incubated with increasing amounts of biotinylated PLCγ1 SH2C-Peptide B 5(c) or biotinylated Peptide B alone 5(d) in an in vitro kinase assay. 5(e) Kinetic parameters describing phosphorylation of Peptide B and the PLCγ1 SH2C-Peptide B fusion protein by Itk. Data shown are the average of two independent experiments. […]

[3] = target: T3, Itk (Mus musculus, UniProt Q03526); assay: Pull-down experiment using purified Itk and purified CypA; assay type: binding; conditions: full length Itk or kinase domain alone immobilized on beads
T3 construct: Full-length Itk, Btk and Tec and the Itk kinase domain fragments were PCR amplified; made in house; host or cells: Sf9 insect cells (baculovirus), co-infected 1:1 with Lck baculovirus
T3 sequence (Q03526 1-625): T1 sequence (Q03526 1-625)
Experimental: In FIG. 16 full length Itk is immobilized on beads that are incubated with CypA. In FIG. 17 the kinase domain alone is immobilized on beads and incubated with CypA. […] The kinase domain alone contains the substrate docking site and so it is likely that CypA interacts with the Itk kinase domain in a manner that either completely or partially occludes the SH2 docking site.

[4] = target: T1, Itk full-length enzyme; conditions: published data (Brazin et al. 2002); cited from earlier work
[5] = target: T4, full length Itk (Mus musculus, UniProt Q03526); assay: In vitro Itk kinase assay using Peptide B as the substrate (initial velocities); assay type: biochemical; conditions: CypA to Itk 0 to 100 times excess; Itk 100 and 600 nM
T4 construct: made in house; host or cells: Sf9 insect cells (baculovirus), co-infected 1:1 with Lck baculovirus
T4 sequence (Q03526 1-625): T1 sequence (Q03526 1-625)
Experimental: Substrate used in each experiment is indicated above each set of blots. 4(a) (left) Itk 32 substrate was incubated with Itk full-length enzyme as before (lane 1), or with Itk 32 domain:free Itk SH2 domain in ratios of 1:10, 1:25 or 1:50 (lanes 2-4, respectively) or equivalent ratios of PI3K N-terminal SH2 domain (lanes 5-7) and subjected to an in vitro kinase assay. […] Coomassie stain and an anti-FLAG blot (bottom panels) show protein levels. (right) The PLCγ1 SH2 domain competes with the PLCγ1 substrate in a similar manner. Lane 1 contains only Itk enzyme and PLCγ1 SH2C-Y783-substrate without additional free SH2 domain. Ratios of free SH2 domain to substrate are 1:5, 1:10 or 1:50 in lanes 2-4, respectively and equivalent ratios of PI3K SH2 domain are used in lanes 5-7. Coomassie stain of the gel and an anti-Itk blot (bottom panels) show protein levels. 4(b) Same experiment as shown in (a) using the Grb2 SH2 domain as a control. (left) Itk 32 substrate was incubated with Itk full-length enzyme (lane 1), or with Itk 32 domain:free Itk SH2 domain in ratios of 1:10 and 1:25 (lanes 2 & 3) or equivalent ratios of Grb2 SH2 domain (lanes 4 & 5) and subjected to an in vitro kinase assay. […]
The ratio of CypA to Itk varied between o and 100 times excess CypA. […] No change in Peptide B phosphorylation is detected. […]

## Grb2 SH2 domain: Grb2 SH2 domain, control SH2 domain [reference compound]
[1]; substrate:free SH2 domain ratios 1:5 to 1:50
  inhibition of PLCγ1 SH2C-Y783- substrate phosphorylation by free SH2 domain: do not inhibit
[1]; substrate:free SH2 domain ratios 1:10, 1:25, 1:50
  inhibition of Itk 32 substrate phosphorylation (Y180) by free SH2 domain: do not inhibit

## Aminohexanoyl biotin-EQEDEPEGIYGVLF-NH2 [Peptide B, reference compound]
[2]
  Km: 87 µM

## CypA: peptidyl-prolyl isomerase Cyclophilin A, target of the immunosuppressive drug cyclosporin A
[3]
  interaction with Itk (pull-down): interacts directly with Itk
[1]; CypA:Itk 32 ratios 0.1:1, 1:1, 10:1, 25:1, signal reduced at 10:1 and 25:1
  effect on phosphorylation of Itk SH3-SH2 protein substrate (Y180): reduce phosphorylation
[4]
  effect on autophosphorylation of Itk in an in vitro kinase assay: reduces autophosphorylation of Itk
[5]
  effect on phosphorylation kinetics of Peptide B: no effect
